33 molecules from patent US20090170763A1 (KENJI KANGAWA, published 2009) can be followed below.

Numbered stars: 1 amine (or outer) side, 2 acyl side, 3 side chain; on linkers, the order of the positions; unused ones are H or OH. Square brackets hold non-standard residues; d marks the D form. Ends that are not written are not given here. * marks the point of attachment. Ethylenediamine = C(CN[*:2])N[*:1]; Palmitoyl = CCCCCCCCCCCCCCCC(=O)*; Lauroyl = CCCCCCCCCCCC(=O)*; Decanoyl = CCCCCCCCCC(=O)*; Octanoyl = CCCCCCCC(=O)*; Hexanoyl = CCCCCC(=O)*; NHBn = c1ccc(CN*)cc1; Butyryl = CCCC(=O)*; Ava = NCCCCC(=O)O; Octyl = CCCCCCCC*

The labels stand for the following.
B1: [N-Aminopentanoyl,Ser^3(Octyl)]-Ghrelin (3-5)-benzylamide (peptide)
peptide: [Ava]S(Octyl)FL-NHBn
B2: [N-Aminopentanoyl,Ser^3(Octyl)]-Ghrelin (3-5)-amide (peptide)
peptide: [Ava]S(Octyl)FL-NH2
modifications: N-terminus assumed
SMILES: CCCCCCCCOC[C@H](NC(=O)CCCCN)C(=O)N[C@@H](Cc1ccccc1)C(=O)N[C@@H](CC(C)C)C(N)=O
B3: [N-Aminopentanoyl,Ser^3(Octyl)]-Ghrelin (3-5)-aminoethylamide (peptide)
peptide: [Ava]S(Octyl)FL-Ethylenediamine
B4: [N-Aminopentanoyl,Ser^3(Octyl)]-Ghrelin (3-5)-ethylamide (peptide)
peptide: [Ava]S(Octyl)FL-NHEt
B5: [N-Aminopentanoyl,Ser^3(Octyl)]-Ghrelin (3-5)-methylamide (peptide)
peptide: [Ava]S(Octyl)FL-NHMe
B6: [Ser^3(Palmitoyl)]-rGhrelin (peptide)
peptide: GSS(Palmitoyl)FLSPEHQKAQQRKESKKPPAKLQPR
B7: [Ser^3(Acetyl)]-rGhrelin (peptide)
peptide: GSS(Ac)FLSPEHQKAQQRKESKKPPAKLQPR
B8: [Ser^3(Butyryl)]-rGhrelin (peptide)
peptide: GSS(Butyryl)FLSPEHQKAQQRKESKKPPAKLQPR
B9: [Ser^3]-rat Ghrelin (peptide)
peptide: GSSFLSPEHQKAQQRKESKKPPAKLQPR
B10: [Ser^3(Decanoyl)]-rGhrelin (peptide)
peptide: GSS(Decanoyl)FLSPEHQKAQQRKESKKPPAKLQPR
B11: [Ser^3(Hexanoyl)]-rGhrelin (peptide)
peptide: GSS(Hexanoyl)FLSPEHQKAQQRKESKKPPAKLQPR
B12: [Ser^3(Lauroyl)]-rGhrelin (peptide)
peptide: GSS(Lauroyl)FLSPEHQKAQQRKESKKPPAKLQPR
B13: [N-Octanoyl, Ser^3]-Ghrelin (1-9)-amide (peptide)
peptide: Octanoyl-GSSFLSPEH-NH2
SMILES: CCCCCCCC(=O)NCC(=O)N[C@@H](CO)C(=O)N[C@@H](CO)C(=O)N[C@@H](Cc1ccccc1)C(=O)N[C@@H](CC(C)C)C(=O)N[C@@H](CO)C(=O)N1CCC[C@H]1C(=O)N[C@@H](CCC(=O)O)C(=O)N[C@@H](Cc1c[nH]cn1)C(N)=O
B14: [Ser^2(Octanoyl), Ser^3]-Ghrelin (1-9)-amide (peptide)
peptide: GS(Octanoyl)SFLSPEH-NH2
modifications: N-terminus assumed
SMILES: CCCCCCCC(=O)OC[C@H](NC(=O)CN)C(=O)N[C@@H](CO)C(=O)N[C@@H](Cc1ccccc1)C(=O)N[C@@H](CC(C)C)C(=O)N[C@@H](CO)C(=O)N1CCC[C@H]1C(=O)N[C@@H](CCC(=O)O)C(=O)N[C@@H](Cc1c[nH]cn1)C(N)=O
B15: Ghrelin (1-9)-amide (peptide)
peptide: GSS(Octanoyl)FLSPEH-NH2
modifications: N-terminus assumed
SMILES: CCCCCCCC(=O)OC[C@H](NC(=O)[C@H](CO)NC(=O)CN)C(=O)N[C@@H](Cc1ccccc1)C(=O)N[C@@H](CC(C)C)C(=O)N[C@@H](CO)C(=O)N1CCC[C@H]1C(=O)N[C@@H](CCC(=O)O)C(=O)N[C@@H](Cc1c[nH]cn1)C(N)=O
B16: [Ser^2(Octanoyl)]-Ghrelin (1-9)-amide (peptide)
peptide: GS(Octanoyl)S(Octanoyl)FLSPEH-NH2
B17: Ghrelin (1-10) (peptide)
peptide: GSS(Octanoyl)FLSPEHQ
B18: Ghrelin (1-8) (peptide)
peptide: GSS(Octanoyl)FLSPE
B19: rGhrelin (1-11) (peptide)
peptide: GSS(Octanoyl)FLSPEHQK
B20: Ghrelin (1-9) (peptide)
peptide: GSS(Octanoyl)FLSPEH
B21: hGhrelin (1-11) (peptide)
peptide: GSS(Octanoyl)FLSPEHQR
B22: Ghrelin (1-4) (peptide)
peptide: GSS(Octanoyl)F
B23: [Leu^3]-hGhrelin (peptide)
peptide: GSLFLSPEHQRVQQRKESKKPPAKLQPR
B24: [Val^3]-hGhrelin (peptide)
peptide: GSVFLSPEHQRVQQRKESKKPPAKLQPR
B25: [Lys^3]-hGhrelin (peptide)
peptide: GSKFLSPEHQRVQQRKESKKPPAKLQPR
B26: [Trp^3]-hGhrelin (peptide)
peptide: GSWFLSPEHQRVQQRKESKKPPAKLQPR
B27: [Phe^3]-hGhrelin (peptide)
peptide: GSFFLSPEHQRVQQRKESKKPPAKLQPR
B28: [Ile^3]-hGhrelin (peptide)
peptide: GSIFLSPEHQRVQQRKESKKPPAKLQPR

The target in the first assay is T1, rat GHS-R (GHS receptor) expressed on CHO-GHSR62 cells (rat, UniProt O08725 1-364). Kind of assay: cell-based or functional assay.
T1 sequence (O08725 whole entry): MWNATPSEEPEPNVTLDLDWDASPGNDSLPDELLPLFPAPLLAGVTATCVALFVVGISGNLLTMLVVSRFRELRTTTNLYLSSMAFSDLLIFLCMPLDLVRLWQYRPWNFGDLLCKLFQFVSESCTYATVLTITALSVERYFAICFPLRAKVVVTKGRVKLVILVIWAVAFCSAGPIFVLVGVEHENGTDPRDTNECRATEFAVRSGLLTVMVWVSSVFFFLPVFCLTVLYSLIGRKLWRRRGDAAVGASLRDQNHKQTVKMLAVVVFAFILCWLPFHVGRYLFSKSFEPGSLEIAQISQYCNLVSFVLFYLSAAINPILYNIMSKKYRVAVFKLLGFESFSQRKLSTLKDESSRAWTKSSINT
Take B1: the “Activity EC50” value is 98 nM.

In the case of B2, the “Activity EC50” value worked out at 11 nM.

For the molecule B3, the “Activity EC50” value came out at 3.5 nM.

For B4, the “Activity EC50” value came to 22 nM.

As to B5, the “Activity EC50” value was found to be 12 nM.

A further assay addresses T1, rat GHS-R (GHS receptor) expressed on …. Put plainly: cell-based or functional assay. The source holds these as a separate data set.
Consider B6, for which the “Ca-releasing activity EC50” value was 6.5 nM.

In the case of B7, the “Ca-releasing activity EC50” value came out at 780 nM.

For the molecule B8, the “Ca-releasing activity EC50” value worked out at 280 nM.

As to B9, the “Ca-releasing activity EC50” value was 3500 nM.

With B10, the “Ca-releasing activity EC50” value was determined as 1.7 nM.

Regarding B11, the “Ca-releasing activity EC50” value was found to be 16 nM.

On to B12, for which the “Ca-releasing activity EC50” value amounted to 2.4 nM.

For a further assay the target is unchanged. Put plainly: cell-based or functional assay. The source holds these as a separate data set.
B13: the “Ca-releasing activity EC50” value is above 10000 nM.

Regarding B14, the “Ca-releasing activity EC50” value was found to be 1100 nM.

As to B15, the “Ca-releasing activity EC50” value is 5.4 nM.

Turning to B16, the “Ca-releasing activity EC50” value turned out to be 1400 nM.

The target is the same in a further assay. Kind of assay: cell-based or functional assay. The source holds these as a separate data set.
For B17, the “Ca-releasing activity EC50” value was 19 nM.

For the molecule B18, the “Ca-releasing activity EC50” value amounted to 100 nM.

As for B19, the “Ca-releasing activity EC50” value came out at 15 nM.

With B20, the “Ca-releasing activity EC50” value is 38 nM.

As for B21, the “Ca-releasing activity EC50” value is 15 nM.

Consider B22, for which the “Ca-releasing activity EC50” value came out at 480 nM.

The target in the next assay is amino-terminal antibody (anti-[C-Cys]-rat ghrelin [1-11] antigen). Kind of assay: radioimmunoassay: inhibition of binding of radioisotope-labeled rat ghrelin to the amino-terminal antibody.
In turn, human ghrelin (peptide) displayed a cross-reactivity of 100%.

B10 yielded a cross-reactivity of 20%.

As for B11, the cross-reactivity is 0.3%.

The target of a further assay is T1, rat GHS-R (GHS receptor) expressed on …. Kind of assay: cell-based or functional assay. This is another data set of the same source.
As for B6, the “Ca-releasing activity (EC50, nM)” value was 3.1 nM.

For B17, the “Ca-releasing activity (EC50, nM)” value is 19 nM.

Consider B7, for which the “Ca-releasing activity (EC50, nM)” value was 780 nM.

As to B18, the “Ca-releasing activity (EC50, nM)” value is 100 nM.

Regarding B8, the “Ca-releasing activity (EC50, nM)” value is 280 nM.

Turning to B19, the “Ca-releasing activity (EC50, nM)” value turned out to be 15 nM.

B10: the “Ca-releasing activity (EC50, nM)” value amounted to 2.6 nM.

For B11, the “Ca-releasing activity (EC50, nM)” value stood at 16 nM.

Turning to B20, the “Ca-releasing activity (EC50, nM)” value amounted to 38 nM.

Take B21: the “Ca-releasing activity (EC50, nM)” value was found to be 15 nM.

For the molecule B22, the “Ca-releasing activity (EC50, nM)” value is 480 nM.

In the next assay the target is rat GHS-R (GHS receptor) expressed on CHO-GHSR62 cells (rat) (UniProt O08725). Kind of assay: cell-based or functional assay.
Sequence of rat GHS-R (GHS receptor) expressed on CHO-GHSR62 cells (rat) (O08725 whole entry): as above
“[N-Aminopentanoyl,^DSer^3(Octyl),^DPhe^4,Lys^5]-Ghrelin (3-5)-amide (peptide)” returned an Activity EC50 of 1600 nM.

In the case of “[N-Aminopentanoyl,Ser^3(Octyl),Lys^5]-Ghrelin (3-5)-amide (peptide)”, the Activity EC50 is 12 nM.

With “[Aib^1,His^2,^DNal^3,^DPhe^4,Lys^5]-Ghrelin (1-5)-amide (peptide)”, the Activity EC50 turned out to be 2.5 nM and the EC50 value came to 2.5 nM.

[D-Lys 3]-GHRP-6 (peptide) showed an inhibition of the Ca-releasing activity of ghrelin of 100 µM.

A further assay concerns the target T1, rat GHS-R (GHS receptor) expressed on …. Put plainly: cell-based or functional assay. The source holds these as a separate data set.
As for B23, the “Activity EC50” value was determined as 4400 nM.

For B24, the “Activity EC50” value was 1600 nM.

On to B25, for which the “Activity EC50” value amounted to 120 nM.

Turning to B26, the “Activity EC50” value turned out to be 31 nM.

Regarding B27, the “Activity EC50” value was determined as 2000 nM.

B28: the “Activity EC50” value was above 10000 nM.
